Experiment: soluble on expression in E. coli; label from the status in PepcDB or PDB records

Soluble on expression in E. coli, not soluble:
MGSDKIHHHHHHMSTSAPINRRLTKKIYVGDVAIGGDAPISVQSMTNTDTCDVAATVAQIERCVEAGADLMRVSTPTMDTVKAFGEIRKLVSVPLIADVHFDHKIALAVAAAGADCLRINPGNIGSDAKVREVVACAKHYNIPIRIGVNAGSLEKDIQRKYKEPNGAAMLESAMRHIDILERLNFDQYKVSVKASNVFLTMDAYRLISAQIDNPLHLGVTEAGVYRTGSVKSAIALGGLLLDGIGDTIRISLAAEPEEEIKIGFDILKSLNIRSNGVNFIACPSCSRQEFDVIRVMTALESRLEDIREPMNLSVIGCKVNGPGEAKEADIGIVGAAPKSLVYRMGEKSHLIDTDNLVDEIEGMVRAHAEELAKKRENEIIRVR, MGSDKIHHHHHHMSVETKLTIDKEYVQSFSDARNEPQWFKDIRLKGFELVETLELPKPDKTKITSWNFTNFDHKLPEVSPVASIDELRDEVKGLIGEASDTQNLLVQRDATVVYSKLDEALKAKGVIFTDLLTAVKEHGDLVEKYYMKDAVKVDENRLTALHAALVNGGTFIYVPRNVEIEVPLQSVFWFDTEKAGLFNHVIIVAEDNSSITYVENYASFGSEEAVANIVVEVFAGANAKVSFGAVDNLAAGVTTYVVRRAHVGRDSRVEWALGQMNDGNTVSENTTHLLGDNSWADTKTVSVGRGEQKQNFTTQIFHHGKHSEGYILKHGVMREAATSIFNGISKIEHGATKSHGEQTERVLMLSEKARGDANPILLIDEDDVTAGHAASVGKIDPIQMFYLMSRGISRAEAERLVIHGFLAPVVGQLPIESVKERLVEAIERKVK, MGSDKIHHHHHHMSVISENVKYFRKQLGFTQEQLAQRIGIKRSLLGAYEEGRAEPGLETLTILARLFETTVDALISETLSDPGKRKEAMSKDIEGKKLRVLAITVDKDDKENIQLVPEKAAAGYLNGYADPEYVAELPQFYLPIFSGSGTYRAFEIKGDSMLPLASGSLIIGQYVDNWSSVKDQQTYILVTATEGIVYKRIYNNIKKNETLKLVSDNPAYEPYDIHVENVIEIWESKAYISTDFPKPDMSVEKLTAIVSGLQKQMNKLSND, MGSDKIHHHHHHMSWHNKVVWNEGLFLLPQLFQQQERYFEYFAHKRAAVLSPFFWGFSRYEIDQESLSFGKLVFKSGAGIFPDGTPFDVPGHTPPPPPLTIAAEHQDQVIYLAVPLRLPNTEETAFDEQAGSLARYSAFEIELRDSNAIGQGPKPVQLANMRLRLLPEKELTQSWIGIALTRVKTLHADGSVALYDGDHIPPVSQYGANPLLREWATQLHGLAKLRADALATRLSGSDGRAGAAAEVADYLLLQVLNRYEPLLEHICRIREMPPVTLYRELSMLAGELSTFVRPQTRRPRPTPGYDHAQLYASIRPLVDEVHYLLNQVLIRGAQPIPLTEQPHGIRVATMLPSELAGYSSLVLAVGAQMSPDVLQQQFASQTKISHPQRLPELIRSHLPGMTMIPLPVPPRQIPFNSSYIYYELSRTGPFWEQIAQQGGLAMHIAGHFPELKLELWGVRHK, MGSDKIHHHHHHMSYTTNKQPQGYPYFVTSKLREDMIGELVAINDYSFIISNSNIKEINDVLYHIRQEEHNHYGMLLELLRKYDPMEMDAYLRVIAHTTLTPVKEYLTVNSGITDKLLLNYLREGAKGELEAIILYEQHLAEIPYSDIRETLQKIVYEEKEHLEELTLVLINYDKDKYGSIKK, MGSDKIHHHHHHMTAFSFLGDKYHDHDLFLETLKYALNCEINDLRPEDFPEIRKLPDLVVIGRWNLLDDETPWLKEGDIKILVDYVRSGGKLFVWHSGLARFPESYNGLVGGRFIHHPPQKKVRYYGKDIEFELVDEHYFVDLYSDVEIFLWSESDDGTSIAGWRRRYHNGKILALTPAHSEGLKDQVFRDFLKKVLNTFVNQTSW, MGSDKIHHHHHHMTAKTFELGPGYTISRVIRGGWQLAGGHGAIDRSQAVTDLIATFDAGIWTYDCADIYTGVEELIGAARLRLASERGLDVAAKMKVHTKLVPDLERLATISRDYIRGIVEQSLRRLKTERLDLVQFHWWDYDQPRYVEAMGWLDELRREGKVRNLGTTNFDTPRLAEILAAGIPLVSQQLQYSVLDQRPAHSLAELAAKNGVSFLCYGSVAGGFLSDKWLGVAEPATPLENRSLVKYKLIIDDFGGWDLFQQLLQALKAVGDRHGVDIATIASAWVLKQPRVAAVIVGARNQAHALANARIMDVALDADDRAKIAAVIAQSQGPLGDVYTLERDRHGRHGSIMHYNLNAGRT, MGSDKIHHHHHHMTANEKKDLAHARVSASDGADAWVRFTVAGKRFDMPVVINASTRSLGASIIVNRMLSRRAPNDARPLMLVTQHITSRMADDLIAKGIPFLDTAGNAYLHEPEATIMIVGRDKPALNLKNPTSRSTTPKGLRVTFALLTQPGLVHAPYRTIADRSAVALNTVNLAMDDLIYRGLVVHKGARRVIADRRRLIEEWASLFPTRLRPKLSPCRFTSWTKESNWWSRPEILDIDARLGGEAGADILTHEIKPASLTIYSHRGITPRLMLNGMLRPDDRGNVEVLETFWPAKAEEGWNLPHREVVHPLLIYSDLITSGDDRNRAVAQTIYDRYLAKERA, MGSDKIHHHHHHMTASLLTFAKGGVHPPESKEITEHLAIEKMPLPAQVEIPLLQHFGAPCQPLVNKKDRVEEGDLIGQVQGLGANVHASITGTVTNVGTSIGPTSLNIPSVTIDRDTEAPDKIYTPSDWRGLSPQELLQKIKDGGIVGIGGAGFPAHVKLSPPPDAKVDTLVLNGAECEPYLTCDHRVMLEKPEEVVEGAKILLHVLGIKDCYIGVESNKNDAIDALRKTIEQQKLDGVKIQVSPLKVKYPQGSEKQLIESTTGRKVPGGGLPFDVGVIVQNVGTAKAVFDAVVLNKPLYEKVITISGRGISRPANLQVRIGTRIRDIVEYLGGTKADLAKIVMGGPMMGFAVSSLDIPVTKTCSGILFLTRDEIDEQPYGPCIRCGWCVEACPMGLSPNEIGLYVEAGRAADTAPFGVFDCFECGSCAFVCPAKRPLVQFIRLAKQKARK, MGSDKIHHHHHHMTDAVEILGAERSGRWVVTCDHACNRVPDDVAGGDLGLPPADMARHIAYDVGALGVARAMGEALNGPVVTSRFSRLVIDPNRGEDDPTLLMQIYDGSIIPANRGASQAEIDRRLDRFHRPYHRALAHVIAQRDDPIVVAIHSFTPQLIGRAPRPWHVSVLYAGDTRLPYPLLARLRDEDDLCVGDNEPYSGHLPGDALDRHGVQPGRLHVLIEVRNDLIETAEDQARWGVRLAQMLEAAATSADL, MGSDKIHHHHHHMTDPDIGDSQDHANIISILQDLGLTENESRVYILLLEYGSMAAQDILRYLPLRQPQLYDITSSLERKGFINVLLGRPKKYEAIDPEAVVEAREQILSRNRRYFLTWANRAMETRRETTALINAKNIRSVINNSIDLINETEKTLEIETTQELFAYIREPILRKIREGCRVEILFFGTDVDLEKVQNQFTDLDVDVRYVSPGQFFTVISDEKNSVFMPRSVAMNTDIERYGYVIRDKDMSWFITHNFFVGWYRGNRIKDHSVVAPYTYHSQRILISDLKRIFDQKGRVHGVLEGIVRSTGDRFTSEGEISEINSDTEIINFVFKTDRGEYTVGGYDSQIEDIVMKSFTVASFG, MGSDKIHHHHHHMTDSPHTIRNPAAPLAERLRPRTLDDVVGQSHLLGPGKPLRLAFESGKPHSMILWGPPGSGKTTLARLMAHAFDAEFIAISAVLSGVKDIREAIERAQITLQRTGRATLLFVDEVHRFNKAQQDAFLPHVEQGLITFIGATTENPSFEVNGALLSRAQVYALKALTDQELHQLFERARSIAMLDLEFENTAIELLIGFADGDARRLLNLLEQVQNAAETEEIIKIDADYLSRVLARNVRRFDKGGDAFYDQISALHKSIRGSSPDAALYWLCRMLDGGADPRYIGRRLVRTATEDIGLADPRALTLALNACEVFERLGSPEGELALAQATLYLACAPKSNAAYVAYKQARAFIKEDISRPVPIHLRNAPTRLMREMGHGAAYRYAHDESESYAAGENYFPDNILAVQFYRPTTHGLEAKIGEKLAYLRSLDEKTGKKRN, MGSDKIHHHHHHMTDSTIDALNKKLDRLIEAVGRLAPPPVPETDLAEADCFVWQADPGYLEPVRKVNRVDIGLIRGVDRVRDILVDNTERFAAGFAANNVLLWGARGMGKSSLVKAVHAEINAKSKSQKAKSDLPLKLIEIHREDIDTLPKLMGLLKAAPFRVILFCDDLSFDHDDTSYKSLKAALEGGVEGRPANVIFYATSNRRHLLPRDMIDNERSTAINPSEAVEEKVSLSDRFGLWLGFHKCSQDEYLEMVNAYASHHGLDIDPEQLRAEALEWATTRGSRSGRVAWQFTQDLAGRLGKPLKD, MGSDKIHHHHHHMTDVTQGRIPHAVYIDPGLPEYRDNPLIASLPPIFDTKQVITKLRLKPLYDSAERNLDGRLRVHAIARLLNRFFQPLSHHLELEQKISLILRQGYLGRNPEQGSYHLHLQNGFKRIQEEDLDAFVFDQARSSANSLSLFGCSGCGKSVTINRILSVYEQAIFHPEHNITQLTYLKIECPVDGDLDELCLSFFNEVDRVLHTQYSTSHGRKKLGTKRLMASMCQIANLHALGVLIIDEVQNLNEAKSGGAEKMHNFFVSLVNTIGVPVIQVGTHRARKFFQRTFRAARRITGFGSLLWDRLPNDHQWRQLLKLLWQYQWLRSAEPINDELVGTMYDLTQGVMDIVVKLYVLAQVRAIVTGMERITSELLKQVYHDEFKPVHPMLAALRSNNPGLLEQYDDLLMPEIEARMLSMVSSLEQADTYVDRPEISTDKSKKLLVLLSQMDIPEDIAIPLVDRVISRHPELSVAALMHKVTEYTADVTAEPPKINRIKRTQWLELPTNDLRYLYASSDKNNVYQLFKNQGLIYDLKSVSNRTG, MGSDKIHHHHHHMTEATYYFIGIKGSGMSALALVLHDLGHQVLGSDITQYTFTQKGLAAAGIKMLPFDPANLKPGYTVIAGNSFTDDHPEIKRAKELGLTIYRYHEFLGKLIEGYTSIGVAGAHGKTSTTGLLAHTLSGVAKTSYLIGDGTGKGIPDSKFFVFEADEYRRHFLAYHPDYMIMTNIDFDHPDYYTGFEDVYDAFETEANQVKKAIVAWGDDPWLRKLKAKVPVYYYGISDRDDFQARNVDRDTKGSSFDAYFHDQLIGHFFVPLFGEHSVLNALAVVAVAHMEKLDAKLIARELGNFSGVKRRFAEKDLKDMIIVDDYAHHPNEIKATLDAARQKYPDKAIIAVFQPHTFSRTQAYEPQYVQVLSQADQTFLTPIFSSAREKTGKIRSEDITAQIKGAAVIHQEDMKPLLQYHNAVVVFMGAGDIQKYEKAYETILAEE, MGSDKIHHHHHHMTEGISIAVLDNDSWSLRAIARWIDGSSPLYHVIWQTTSAAEAIHRCIYTNDKPNVLLLDMALNDATGISVCTQIRKRTADIGIIGITAYDPERYKTDLALAGGQALIAKENLAHVCNKVLPIVAQGKSAEPNSFPTAKQAHDILAEQPSSFSQIKQLSPRELQVLRLYTQNNNTSEIASQLGISSNTVFSYIHRVSKKIGTKNRSEIIRLCKKYDIL, MGSDKIHHHHHHMTEKFNRQRAENLIAIANQFAQLGKVTAVKAFGSGNINDTFLVTLDSSKEQHFVLQRINTQVFRQPKLIMQNMRTFTEHVHKRLQHTPLNRRWEVPRVLLTKDAQDHCQDSDGSFWRAISFIEGSQSFDTMRDRSQAKEIGYALGMFHNLISDLPPEKLADTLQGFHITPLYLQHYEEVLAKTSASQSSEVNYCLQFVSDRQAFAHILENAKAEGKLPLRLMHGDPKINNVMFDTVTQQAVSVIDLDTVKPGLVHYDIGDCLRSGCNQAGEETENWESVHFDPGLCQGILQGYLSVAKAFLTENDYAYIYDAIRLIAFELGLRFFADYLAGNVYFKVKHPEHNLARAIVQFKLTESIESQETQIRNIIKDMK

Source: the DeepSol protein solubility set
